Data reported in US8221773B2, “Hydrogels and uses thereof” (University of Delaware, priority 2004, dated 2012).
Where no end group is shown, it is not given here. [ ]: non-standard residue; d: D form.

Tests used:
[1] = cited from earlier work
[2] = Temperature dependent CD: temperature at which folding and self-assembly is triggered (Tgel); assay type: physicochemical; conditions: for temperature at which folding and consequent self-assembly is triggered (Tgel): 150 μM peptide, 125 mM Borate, 10 mM NaCl, pH 9, CD ellipticity at 218 nm
Text: At low temperature MAX1 is unfolded (and unassembled). At high temperature MAX1 folds into beta-sheet (and consequently self-assembles into a hydrogel). […] The relative hydrophobicity is MAX1>MAX2>MAX3 due to the isostructural but less hydrophobic substitutions of threonine for valine at the underlined positions. The most hydrophobic folds at the lowest temperature while the least hydrophobic folds at the highest temperature. This is a direct manifestations of the molecular parameter manipulations described in FIG. 2. Also shown are the calculated free energy of transfer of each corresponding unfolded peptide having an overall +8 charge state from octanol into water at 25° C. MAX1, the most hydrophobic has the highest free energy of transfer equal to 7.60 kcal/mol. MAX2 has a calculated transfer free energy of 6.88 kcal/mol, while the least hydrophobic MAX3 has the lowest energy of transfer of 6.45 kcal/mol.
This allows the characteristics of the hydrogels of the invention to be varied by adjusting these parameters. […] It is well known that water is better able to solvate hydrophobic groups at low temperatures. This phenomenon has been used to describe the cold denaturation of proteins where some proteins unfold at low temperatures, exposing their hydrophobic interiors to aqueous solvent. A 150 μM aqueous solution of MAX1 unfolds when cooled below room temperature. The CD spectrum at 5° C. is consistent with random coil conformation, FIG. 9A. However, warming the solution to 40° C. results in a spectra consistent with β-sheet structure. […] In fact, previous studies involving the pH induced folding and self-assembly of MAX1 were performed at 20° C. At this temperature, folding and self-assembly are slow enough to be conveniently monitored. At higher temperatures, folding and self: assembly leading to hydrogelation is fast (instantaneous to seconds depending on concentration). If the formation of hydrophobic interactions affects the folding and self-assembly process, then altering the hydrophobic content of MAX1 should affect the temperature at which folding is triggered. […] MAX2 is identical to MAX1 except that one valine residue has been replaced with the isostructural, but less hydrophobic residue, threonine. In MAX3, two valines are replaced with threonine residues. The resulting peptides vary in their hydrophobicity as evident by comparing calculated free energies of transfer from octanol into water, FIG. 9. […] Thus, the formation of hydrophobic contacts influences folding and self-assembly. […] Thus, the characteristics of the hydrogels of the invention can be varied by adjusting the amino acid residues of the peptides used to form the hydrogels to increase or decrease the hydrophobicity of the amino acid residues used.
There are reports of large polymers that are thermally responsive. The present invention provides the first system that employs temperature triggered folding to induce self-assembly. […] Heating the solution to 80° C. results in a spectra consistent with β-sheet structure. […] The temperatures used in both CD and rheology bracket the temperature (Tgel=60° C., FIG. 9) at which folding and consequent self-assembly is triggered. […] For example, free flowing peptide solutions could be prepared at room temperature and administered in vivo where the temperature of the body could induce gelation. […]

[3] = Hydrogelation by folding and self-assembly; assay type: physicochemical; conditions: for reversibility of thermally induced hydrogelation: pH 9, heating/cooling cycles
Method: The ability of MAX1 to undergo hydrogelation is dependent upon its unimolecular folded state. Under basic aqueous solution conditions (pH 9.0, 125 mM Borate, 10 mM NaCl), where some of the lysine side chains of MAX1 are neutral, this peptide intramolecularly folds into an amphiphilic β-hairpin (folding can also be triggered at pH 7 under physiological conditions). One face of the hairpin is lined with hydrophobic valine residues while the other face is lined with hydrophilic lysine residues, FIGS. 2 and 3A. After intramolecular folding, subsequent self-assembly of hairpins is facilitated (a) laterally via H-bond formation and attractive hydrophobic interactions between distinct hairpins as well as (b) facially by hydrophobic association of the valine-rich faces of the folded peptide resulting in hydrogelation, FIG. 3B. Since the charged state of the lysine residues are controlled by pH, the unimolecular folding is reversible. Lowering the pH below the intrinsic pKa of the lysine side chains results in intra-strand charge repulsion from neighboring lysines and subsequent unfolding of individual hairpins, ultimately dissolving the self-assembled hydrogel structure. This reversible behavior is unique when compared to β-sheet-rich hydrogels prepared from classical fibril-based designs. In these systems, the self-assembly process is irreversible.
There are reports of large polymers that are thermally responsive. The present invention provides the first system that employs temperature triggered folding to induce self-assembly. […] Heating the solution to 80° C. results in a spectra consistent with β-sheet structure. […] The temperatures used in both CD and rheology bracket the temperature (Tgel=60° C., FIG. 9) at which folding and consequent self-assembly is triggered. […] For example, free flowing peptide solutions could be prepared at room temperature and administered in vivo where the temperature of the body could induce gelation. Some Poly-N-isopropylacrylamide polymers have been engineered have been engineered to undergo such transitions ultimately affording extracellular-like scaffolds for tissue regeneration. The above studies support the idea that the formation of hydrophobic interactions are important. MAX1-3 all contain valines and threonines at hydrogen bonded positions. At these positions, their side chains prefer to adopt a trans rotamer. As a result, hydrophobic residues that oppose each other across the hairpin point their side chains in opposite directions thus making the formation of intramolecular hydrophobic interactions across the strands difficult, FIG. 11A. However, these side chains are nicely positioned to interact laterally with the hydrophobic side chains of neighboring hairpins in the self-assembled state, FIG. 11B. Forming these lateral hydrophobic interactions should favor self-assembly. […] In MAX4, opposing valine side chains are expected to point towards each other, FIG. 11B. Thus, the valine side chains of MAX4 are less likely than those in MAX1 to form lateral intermolecular hydrophobic interactions. If the formation of lateral intermolecular hydrophobic interactions is of more importance for self-assembly than intramolecular hydrophobic contacts, then the rate of self-assembly should be faster for MAX1 than for MAX4. This difference in rate should be evident in the rate of storage moduli (rigidity) increase. […] (Tgel=20° C. for both peptides). […]

[4] = CD spectroscopy of peptide folding (random coil vs β-sheet); assay type: physicochemical; conditions: 150 μM solution, pH 9.0, 125 mM Borate, 10 mM NaCl
Method: Time-dependent circular dichroism (CD) studies support a hydrogelation mechanism consistent with intramolecular hairpin formation followed by self-assembly. […] At temperatures >25° C. the folding and self-assembly of MAX1 occurs on the order of seconds. […] This behavior is consistent across all spectro- and microscopic methods used to interrogate MAX1. For example, at micromolar concentrations used for the CD studies shown in FIGS. 4A and 4B, self-assembly takes hours at 20° C. At millimolar concentrations, such as those used in the rheological studies described below, self-assembly leading to hydrogel takes minutes at 20° C.
The reversibility of the folding and self-assembly process was investigated by measuring θ216 as a function of pH and time as shown in FIG. 4C. CD of a stirred solution of MAX1 at pH 5.5 indicates random coil conformation. Adjusting the pH to 9.0 by the addition of NaOH results in β-sheet formation as expected. However, subsequent adjustment of the pH to 6.0 results in complete loss of sheet signal and full recovery of random coil signal. […] Again, this reversible behavior is not observed in hydrogels formed from amyloid/prion-like fibrils.
In some embodiments of the invention, various functionalities (e.g., cell adhesion epitopes, receptor agonists, receptor antagonists, ligands, small molecules, etc) may be incorporated into the hairpin hydrogel scaffold. One way to accomplish this would be to functionalize one or more amino acid side chains of the peptide. […] In some embodiments, the moieties to be incorporated at a particular side chain may be much larger (e.g. RGD-based motifs) and may contain charged residues. MAX5 (VKVKVKVKV^DPPTKVKEKVKV-NH2) was prepared to investigate the possibility of incorporating a charged residue on the hydrophobic face of MAX1. The sequence contains a glutamic acid residue at position 16 which is negatively charged at basic pH where MAX1 normally folds and assembles. […] However, alterations to the hydrophilic face of MAX1 are well tolerated. Sequences in which one or two lysine residues are replaced with other residues such as cysteine, serine, and glutamic acid are capable of folding and self-assembly into rigid hydrogels (data not shown).
The peptides described above contain identical turn sequences, namely (-V^DPPT-). This sequence has a strong propensity to form a type II′ turn and therefore helps to drive intramolecular folding. Since intramolecular folding must occur prior to self-assembly, alterations to this turn sequence that inhibit turn structure formation can be used to modulate intramolecular folding and self-assembly leading to hydrogelation. MAX9 was prepared to probe the importance of the turn region (VKVKVKVKV^LPPTKVKVKVKV-NH2). […]

## NC(=O)CN1CCN(CC(N)=O)CCN(CC(N)=O)CCN(CC(N)=O)CC1 [DOTAM]
[1]; read-out: Kd for calcium
  Kd: 29 nM

## -DRKADGYIDFEE-
[1]; linear peptide
  Kd for Ca(II): low mM

## KVKVKVKV K^DPPS VKVKVKVK-NH2 (chain 1 KVKVKVKVK[dP]PS; not fully specified) [MAX4]
[2]
  temperature at which folding and consequent self-assembly is triggered (Tgel): 20 °C

## VKVKVKTK V^DPPT KVKTKVKV-NH2 (not fully specified (C-terminus)) [MAX3]
[2]
  temperature at which folding and consequent self-assembly is triggered (Tgel): 60 °C
[3]
  reversibility of thermally induced hydrogelation: thermally reversible

## VKVKVKVK VPPT KVKVKVKV-NH2 (VKVKVKVKVPPTKVKVKVKV-NH2) [MAX9]
[4]
  conformation by CD under folding conditions: only random coil
[3]; 2 wt % solutions
  hydrogelation under folding conditions: failed to undergo hydrogelation

## VKVKVKVK V^DPPT KVKCKVKV-NH2 (not fully specified (C-terminus)) [MAX6]
[3]
  ability to fold and self-assemble: folds and self-assembles

## VKVKVKVK V^DPPT KVKEKVKV-NH2 [MAX5]
[4]
  conformation by CD under folding conditions: random coil

## VKVKVKVK V^DPPT KVKTKVKV-NH2 (not fully specified (C-terminus)) [MAX2]
[2]; pH 9 (10 mM NaCl)
  temperature above which peptide folds/self-assembles: greater than 45 °C
  temperature below which peptide is unfolded: below 40 °C
[3]
  reversibility of thermally induced hydrogelation: not reversible
